For the data set the following is noted: Pseudomonas aeruginosa (strain ATCC 15692 / DSM 22644 / CIP 104116 / JCM 14847 / LMG 12228 / 1C / PRS 101 / PAO1); pH 7.03; 20 °C; Thermal; DSC; phosphate buffer 10 mM; sodium chloride 40 microM; reversible: no; whole UniProt chain shown.

B1: Azurin wild type, P00282 (protein)
chain: MLRKLAAVSLLSLLSAPLLAAECSVDIQGNDQMQFNTNAITVDKSCKQFTVNLSHPGNLPKNVMGHNWVLSTAADMQGVVTDGMASGLDKDYLKPDDSRVIAHTKLIGSGEKDSVTFDVSKLKEGEQYMFFCTFPGHSALMKGTLTLK
Turning to B1, the “unfolding enthalpy (calorimetric)” value was 14.6 kcal/mol and the unfolding free energy was 14.3 kcal/mol.

Source of the values: FireProtDB (doi:10.1016/s0006-3495(99)76955-9).
